Consider one molecule from PMC9890228 (The EMBO Journal, 2022).

This assay concerns the target T1, FANCD2 (human, UniProt Q9BXW9 1-1451).
T1 construct: The cryo-EM methods say only 'purified FANCD2'; The ubiquitination and deubiquitination reactions used N-terminally FLAG-tagged FANCD2; the functional rows use this molecule for it (for the USP1 rows in its K561-ubiquitinated form, D2Ub); Constructs as in Arkinson et al 2018 and Rennie et al 2020; also called D2^WT; source: Sf21 insect cells, purified (NiNTA, anion exchange, gel filtration)
Put plainly: cryo-EM structure; ubiquitinated His6-V5-FANCI mixed with FANCD2 at 1:1 molar ratio, 61 bp dsDNA added at 1:1; 20 mM Tris pH 8.0, 150 mM NaCl, 2 mM DTT; 4.1 Å global resolution. As to conditions: both partners purified.

T1 sequence (Q9BXW9 whole entry): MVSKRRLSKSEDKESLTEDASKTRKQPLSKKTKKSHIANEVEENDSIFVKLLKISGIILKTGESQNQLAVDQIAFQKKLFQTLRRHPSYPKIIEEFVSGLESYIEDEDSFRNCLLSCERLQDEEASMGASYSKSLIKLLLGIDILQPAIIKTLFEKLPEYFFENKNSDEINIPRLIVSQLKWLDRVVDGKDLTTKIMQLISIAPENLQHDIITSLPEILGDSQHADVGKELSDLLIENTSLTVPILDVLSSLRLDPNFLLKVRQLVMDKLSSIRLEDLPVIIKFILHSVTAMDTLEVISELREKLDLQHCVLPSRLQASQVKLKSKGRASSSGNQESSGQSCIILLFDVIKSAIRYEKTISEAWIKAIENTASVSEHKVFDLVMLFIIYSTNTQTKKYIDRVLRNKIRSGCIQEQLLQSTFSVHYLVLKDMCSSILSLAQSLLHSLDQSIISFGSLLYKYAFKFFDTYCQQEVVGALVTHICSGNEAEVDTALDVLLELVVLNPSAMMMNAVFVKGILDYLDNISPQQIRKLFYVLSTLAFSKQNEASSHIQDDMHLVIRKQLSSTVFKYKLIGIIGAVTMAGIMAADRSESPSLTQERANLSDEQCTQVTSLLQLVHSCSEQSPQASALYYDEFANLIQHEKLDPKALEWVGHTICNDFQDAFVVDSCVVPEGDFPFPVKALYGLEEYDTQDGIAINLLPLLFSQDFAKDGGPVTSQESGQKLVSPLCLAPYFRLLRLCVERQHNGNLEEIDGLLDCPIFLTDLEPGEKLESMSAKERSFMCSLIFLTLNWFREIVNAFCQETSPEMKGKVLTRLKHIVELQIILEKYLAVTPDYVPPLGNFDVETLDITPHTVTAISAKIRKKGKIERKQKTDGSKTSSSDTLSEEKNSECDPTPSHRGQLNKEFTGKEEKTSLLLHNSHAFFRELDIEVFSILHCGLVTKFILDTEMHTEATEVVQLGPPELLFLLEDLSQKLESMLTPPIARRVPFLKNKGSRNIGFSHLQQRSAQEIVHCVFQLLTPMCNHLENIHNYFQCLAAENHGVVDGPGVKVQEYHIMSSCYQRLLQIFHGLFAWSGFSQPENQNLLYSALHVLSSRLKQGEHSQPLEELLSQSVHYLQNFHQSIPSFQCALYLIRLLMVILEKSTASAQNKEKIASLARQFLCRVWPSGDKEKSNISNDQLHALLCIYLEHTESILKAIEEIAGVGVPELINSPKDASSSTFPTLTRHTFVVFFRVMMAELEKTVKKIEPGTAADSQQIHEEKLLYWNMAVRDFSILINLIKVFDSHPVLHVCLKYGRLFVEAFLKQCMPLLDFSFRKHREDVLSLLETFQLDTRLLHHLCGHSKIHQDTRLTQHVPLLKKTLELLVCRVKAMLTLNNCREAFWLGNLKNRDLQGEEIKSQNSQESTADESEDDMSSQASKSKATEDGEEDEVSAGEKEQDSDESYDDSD

B1: FANCI (the FANCI chain of ubiquitinated His6‐V5‐FANCI) (natural protein, human, UniProt Q9NVI1 1-1328, looked up)
chain: MDQKILSLAAEKTADKLQEFLQTLREGDLTNLLQNQAVKGKVAGALLRAIFKGSPCSEEAGTLRRRKIYTCCIQLVESGDLQKEIASEIIGLLMLEAHHFPGPLLVELANEFISAVREGSLVNGKSLELLPIILTALATKKENLAYGKGVLSGEECKKQLINTLCSGRWDQQYVIQLTSMFKDVPLTAEEVEFVVEKALSMFSKMNLQEIPPLVYQLLVLSSKGSRKSVLEGIIAFFSALDKQHNEEQSGDELLDVVTVPSGELRHVEGTIILHIVFAIKLDYELGRELVKHLKVGQQGDSNNNLSPFSIALLLSVTRIQRFQDQVLDLLKTSVVKSFKDLQLLQGSKFLQNLVPHRSYVSTMILEVVKNSVHSWDHVTQGLVELGFILMDSYGPKKVLDGKTIETSPSLSRMPNQHACKLGANILLETFKIHEMIRQEILEQVLNRVVTRASSPISHFLDLLSNIVMYAPLVLQSCSSKVTEAFDYLSFLPLQTVQRLLKAVQPLLKVSMSMRDCLILVLRKAMFANQLDARKSAVAGFLLLLKNFKVLGSLSSSQCSQSLSVSQVHVDVHSHYNSVANETFCLEIMDSLRRCLSQQADVRLMLYEGFYDVLRRNSQLANSVMQTLLSQLKQFYEPKPDLLPPLKLEACILTQGDKISLQEPLDYLLCCIQHCLAWYKNTVIPLQQGEEEEEEEEAFYEDLDDILESITNRMIKSELEDFELDKSADFSQSTSIGIKNNICAFLVMGVCEVLIEYNFSISSFSKNRFEDILSLFMCYKKLSDILNEKAGKAKTKMANKTSDSLLSMKFVSSLLTALFRDSIQSHQESLSVLRSSNEFMRYAVNVALQKVQQLKETGHVSGPDGQNPEKIFQNLCDITRVLLWRYTSIPTSVEESGKKEKGKSISLLCLEGLQKIFSAVQQFYQPKIQQFLRALDVTDKEGEEREDADVSVTQRTAFQIRQFQRSLLNLLSSQEEDFNSKEALLLVTVLTSLSKLLEPSSPQFVQMLSWTSKICKENSREDALFCKSLMNLLFSLHVSYKSPVILLRDLSQDIHGHLGDIDQDVEVEKTNHFAIVNLRTAAPTVCLLVLSQAEKVLEEVDWLITKLKGQVSQETLSEEASSQATLPNQPVEKAIIMQLGTLLTFFHELVQTALPSGSCVDTLLKDLCKMYTTLTALVRYYLQVCQSSGGIPKNMEKLVKLSGSHLTPLCYSFISYVQNKSKSLNYTGEKKEKPAAVATAMARVLRETKPIPNLIFAIEQYEKFLIHLSKKSKVNLMQHMKLSTSRDFKIKGNILDMVLREDGEDENEEGTASEHGGQNKEPAKKKRKK
modifications: K523 isopeptide-linked to G76 of ubiquitin
notes: The FANCI chain of m1, written on its own for its contacts with FANCD2 in the structure; source: Sf21 insect cells, purified (NiNTA, anion exchange, gel filtration); ubiquitinated in vitro; not shown: His6, N-terminal, kept; V5, N-terminal, kept
For the molecule B1, the binding result is reported as “binds”.
